Results taken from patent US9044511B2, “Peptide” (Marealis AS, priority 2010, dated 2015).
Values joined by “and” are separate entries in the source; they are usually repeats but may differ in a detail not shown here. Identical values can stand only once. Like-named read-outs stand apart in the source and are kept apart here. Peptide text beside a SMILES is read from it.

T1: ACE (Sigma A 6778) (Oryctolagus cuniculus, UniProt P12822)
T1 construct: purchased Sigma A 6778
T1 sequence (P12822 34-1310): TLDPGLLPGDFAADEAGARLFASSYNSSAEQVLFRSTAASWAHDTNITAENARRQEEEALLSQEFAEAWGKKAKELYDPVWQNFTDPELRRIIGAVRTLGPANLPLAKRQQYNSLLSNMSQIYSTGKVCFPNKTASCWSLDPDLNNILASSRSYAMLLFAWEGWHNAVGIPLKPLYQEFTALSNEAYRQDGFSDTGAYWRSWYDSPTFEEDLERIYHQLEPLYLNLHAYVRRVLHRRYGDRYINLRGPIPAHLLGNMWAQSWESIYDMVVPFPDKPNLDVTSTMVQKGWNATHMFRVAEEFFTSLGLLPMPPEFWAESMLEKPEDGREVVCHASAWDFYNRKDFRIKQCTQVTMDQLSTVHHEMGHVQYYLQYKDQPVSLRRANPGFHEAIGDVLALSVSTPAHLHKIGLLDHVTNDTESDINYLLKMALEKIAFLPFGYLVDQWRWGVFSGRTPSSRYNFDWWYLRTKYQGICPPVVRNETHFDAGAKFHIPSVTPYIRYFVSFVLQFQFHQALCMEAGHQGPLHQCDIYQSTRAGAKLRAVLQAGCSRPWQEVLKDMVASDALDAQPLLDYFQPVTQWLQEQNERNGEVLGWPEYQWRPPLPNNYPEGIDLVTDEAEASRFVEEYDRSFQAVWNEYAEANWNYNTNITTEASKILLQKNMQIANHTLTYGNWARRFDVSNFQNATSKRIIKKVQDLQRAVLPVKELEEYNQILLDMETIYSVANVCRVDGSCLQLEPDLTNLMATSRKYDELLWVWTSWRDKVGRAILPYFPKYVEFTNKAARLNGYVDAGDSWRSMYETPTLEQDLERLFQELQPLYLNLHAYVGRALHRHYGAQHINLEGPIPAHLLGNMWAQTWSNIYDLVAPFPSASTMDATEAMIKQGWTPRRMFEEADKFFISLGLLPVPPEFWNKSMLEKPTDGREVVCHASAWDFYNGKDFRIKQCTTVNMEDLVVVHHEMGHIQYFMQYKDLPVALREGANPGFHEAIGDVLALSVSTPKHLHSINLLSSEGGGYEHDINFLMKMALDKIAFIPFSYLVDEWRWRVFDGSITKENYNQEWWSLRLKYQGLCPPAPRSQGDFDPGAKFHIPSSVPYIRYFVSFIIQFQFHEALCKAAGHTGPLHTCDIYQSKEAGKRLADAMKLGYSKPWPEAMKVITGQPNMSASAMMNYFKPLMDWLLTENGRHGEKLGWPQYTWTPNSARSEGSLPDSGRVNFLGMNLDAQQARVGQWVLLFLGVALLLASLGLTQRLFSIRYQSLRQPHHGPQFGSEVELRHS

T2: Angiotensin I-converting enzyme (ACE) (Sigma A 6778) (UniProt P12822 34-1310, limits assumed)
T2 sequence (looked up): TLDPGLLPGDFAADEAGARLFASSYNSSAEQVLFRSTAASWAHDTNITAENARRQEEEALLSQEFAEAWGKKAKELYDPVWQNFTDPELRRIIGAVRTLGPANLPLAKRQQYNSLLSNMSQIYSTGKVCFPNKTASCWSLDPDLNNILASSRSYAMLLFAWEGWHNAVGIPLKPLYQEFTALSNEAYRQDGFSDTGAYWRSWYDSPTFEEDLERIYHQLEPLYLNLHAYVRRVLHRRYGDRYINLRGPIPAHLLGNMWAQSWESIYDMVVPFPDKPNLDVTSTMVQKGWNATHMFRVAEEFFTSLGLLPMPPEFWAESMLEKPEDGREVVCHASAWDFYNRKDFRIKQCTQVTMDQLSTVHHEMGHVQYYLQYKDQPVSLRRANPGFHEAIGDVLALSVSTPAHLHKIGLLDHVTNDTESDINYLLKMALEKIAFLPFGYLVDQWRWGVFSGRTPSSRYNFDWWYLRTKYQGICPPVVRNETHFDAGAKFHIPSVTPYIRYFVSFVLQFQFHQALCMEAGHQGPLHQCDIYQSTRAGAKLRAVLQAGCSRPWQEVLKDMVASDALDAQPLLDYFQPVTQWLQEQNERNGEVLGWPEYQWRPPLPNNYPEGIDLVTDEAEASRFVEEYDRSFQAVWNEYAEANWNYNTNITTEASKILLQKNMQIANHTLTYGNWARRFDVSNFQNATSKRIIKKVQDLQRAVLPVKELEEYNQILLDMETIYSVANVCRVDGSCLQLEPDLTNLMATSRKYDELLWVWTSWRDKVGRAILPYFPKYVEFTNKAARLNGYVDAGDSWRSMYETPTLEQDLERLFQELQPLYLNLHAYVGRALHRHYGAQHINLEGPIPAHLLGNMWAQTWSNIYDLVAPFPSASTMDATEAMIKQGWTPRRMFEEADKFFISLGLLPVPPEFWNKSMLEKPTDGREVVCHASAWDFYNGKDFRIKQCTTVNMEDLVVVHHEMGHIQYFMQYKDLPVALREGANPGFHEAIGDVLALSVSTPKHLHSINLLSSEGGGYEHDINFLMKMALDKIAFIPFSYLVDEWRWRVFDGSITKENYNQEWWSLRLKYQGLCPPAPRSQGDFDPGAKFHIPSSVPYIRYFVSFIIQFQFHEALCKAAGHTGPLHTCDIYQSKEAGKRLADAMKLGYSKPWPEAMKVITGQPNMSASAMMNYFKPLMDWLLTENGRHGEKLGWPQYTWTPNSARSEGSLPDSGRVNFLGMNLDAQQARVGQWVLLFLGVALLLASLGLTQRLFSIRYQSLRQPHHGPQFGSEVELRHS

T3: ACE from rabbit lung acetone extract (rabbit, UniProt P12822 34-1310, limits assumed)
T3 sequence (looked up): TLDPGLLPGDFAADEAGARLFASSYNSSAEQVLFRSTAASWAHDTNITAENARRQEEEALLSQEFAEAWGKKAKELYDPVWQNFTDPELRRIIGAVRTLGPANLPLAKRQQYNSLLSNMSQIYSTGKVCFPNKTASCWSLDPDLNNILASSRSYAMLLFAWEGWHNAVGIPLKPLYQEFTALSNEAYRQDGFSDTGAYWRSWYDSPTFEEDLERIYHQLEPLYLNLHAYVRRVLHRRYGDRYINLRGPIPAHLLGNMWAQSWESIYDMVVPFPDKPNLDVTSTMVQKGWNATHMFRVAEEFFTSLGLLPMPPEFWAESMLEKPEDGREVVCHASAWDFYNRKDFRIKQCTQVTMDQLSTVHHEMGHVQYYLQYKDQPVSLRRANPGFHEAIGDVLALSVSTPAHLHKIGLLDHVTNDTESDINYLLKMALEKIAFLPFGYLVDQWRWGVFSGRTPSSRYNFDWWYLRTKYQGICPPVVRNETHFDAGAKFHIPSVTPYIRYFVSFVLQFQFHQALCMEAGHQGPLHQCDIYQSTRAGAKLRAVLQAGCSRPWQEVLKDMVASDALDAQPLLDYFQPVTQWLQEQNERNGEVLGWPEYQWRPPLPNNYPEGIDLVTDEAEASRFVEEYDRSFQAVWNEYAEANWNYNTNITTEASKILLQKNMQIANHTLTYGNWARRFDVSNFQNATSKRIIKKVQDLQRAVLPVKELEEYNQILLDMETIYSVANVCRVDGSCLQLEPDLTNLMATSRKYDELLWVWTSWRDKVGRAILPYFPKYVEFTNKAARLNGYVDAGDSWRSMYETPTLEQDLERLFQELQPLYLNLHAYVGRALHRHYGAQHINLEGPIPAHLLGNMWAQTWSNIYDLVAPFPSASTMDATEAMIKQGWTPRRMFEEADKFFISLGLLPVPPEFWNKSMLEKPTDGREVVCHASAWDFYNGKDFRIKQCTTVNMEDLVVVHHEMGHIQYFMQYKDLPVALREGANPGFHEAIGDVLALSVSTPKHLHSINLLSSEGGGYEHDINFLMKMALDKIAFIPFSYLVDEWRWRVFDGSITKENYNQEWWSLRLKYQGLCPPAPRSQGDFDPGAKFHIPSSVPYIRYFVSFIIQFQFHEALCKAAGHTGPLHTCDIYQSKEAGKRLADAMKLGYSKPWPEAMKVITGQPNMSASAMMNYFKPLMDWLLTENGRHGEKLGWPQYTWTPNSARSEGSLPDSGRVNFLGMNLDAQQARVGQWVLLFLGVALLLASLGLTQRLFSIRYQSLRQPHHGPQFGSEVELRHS


Columns and labels:
ACE (Sigma A 6778) = target: T1, ACE (Sigma A 6778); assay: ACE-inhibitory activity, HHL substrate, hippuric acid by HPLC (method of Dragnes et al. / Cushman and Cheung); assay type: biochemical
Description: ACE-inhibitory activity may be assayed using known methods, for example based on the method reported by Cushman and Cheung (1971) by measuring the end product hippuric acid (HA) from the enzymatic reaction between ACE (Sigma A 6778) and the substrate HHL (Sigma H 1635). (CUSHMAN, D. W. & CHEUNG, H. S. (1971). Concentrations of Angiotensin-Converting Enzyme in Tissues of Rat. Biochimica Et Biophysica Acta 250(1), 261-265 and Dragnes et al. J Food Composition and Analysis 2009; 22: 714-17). A different suitable assay is disclosed by Vermeirssen et al. (2002), J. Biochem Biophys. Methods 51 (2002), pages 75-87, which is incorporated herein by reference. Briefly, this is a spectrophotometric method in which ACE inhibition is measured using the substrate furanacryloyl-Phe-Gly-Gly and rabbit lung acetone extract as the ACE source. The IC50 may be determined.
An FSY peptide was analysed via an enzyme assay wherein ACE produces hippuric acid (HA) from the substrate hippuryl-histidine-leucine (HHL). The HA concentration was determined by quantitative HPLC analyses and a decreased concentration was correlated with inhibitory effect. ACE-inhibitory activity was determined based on the method reported by Cushman and Cheung (1971) by measuring the end product hippuric acid (HA) from the enzymatic reaction between ACE (Sigma A 6778) and the substrate HHL (Sigma H 1635), essentially as described in Dragnes et al. J Food Composition and Analysis 2009; 22: 714-17. A 100 μl volume with 2 mM HHL in 100 mM sodium borate buffer pH 8,3 was pre-incubated at 37° C. for 30 minutes with 25 μl inhibitor (FSY peptide diluted in Sodium borate buffer). Then the assay was initiated by adding 50 μl ACE (10 mU). The enzymatic reaction was stopped by addition of 215 μl 1 M HCl.
Quantitative HPLC analyses were performed on a Shimadzu (Shimadzu Corporation, Japan), using a Symmetry-Shield reverse phase C-18 Intelligent Speed column. The HA was eluted at ambient temperature using a mobile phase that consisted of 0.05% aqueous trifluoroacetic acid and HPLC-grade acetonitrile. A 2 min linear gradient was used, beginning after 0.5 min isocratic elution with 5% acetonitrile and ending with 90% acetonitrile. The flow-rate was maintained at 2 mL min ? 7 1 and the UV absorption was measured at 228 nm.
Determinations of IC50 values depend on the precise assay conditions, which makes it difficult to make meaningful comparisons between IC50 values determined in separate assays. A comparative analysis was therefore carried out to compare the ACE-inhibitory activity of the FSY peptide to known ACE-inhibitory peptides. ACE-inhibitory activity was assayed using the method of Dragnes et al. described in Example 1.

[1] = target: T2, Angiotensin I-converting enzyme (ACE) …; assay: cell-based or functional assay
[2] = target: T2, Angiotensin I-converting enzyme (ACE) …; assay: cell-based or functional assay; remark: listed apart in the source
[3] = target: T3, ACE from rabbit lung acetone extract; assay: cell-based or functional assay
[4] = comparative analysis, read-out: IC50 in μg/ml (converted)

Molecule	IC50 (ACE (Sigma A 6778); [4]) [µM]	IC50 in µM (ACE inhibition, method of Dragnes et al.) [1] [µM]	IC50 in µg/ml (ACE inhibition, method of Dragnes et al.) [1] [µg/mL]	IC50 of ACE inhibition (method of Vermeirssen et al.) [3] [µM]	other results
N[C@@H](Cc1ccccc1)C(=O)N[C@@H](CO)C(=O)N[C@@H](Cc1ccc(O)cc1)C(=O)O [FSY] (H-Phe-Ser-Tyr-OH; N-terminus and C-terminus assumed)	2.17				IC50 (ACE (Sigma A 6778); comparative analysis, read-out: IC50): 2.2 µM; IC50 (ACE (Sigma A 6778); typical measurements, read-out: IC50 with respect to ACE inhibition, method of Dragnes et al.): ~2.2 µM
CC(C)[C@H](N)C(=O)N[C@@H](Cc1ccc(O)cc1)C(=O)O [VY, reference compound] (H-Val-Tyr-OH; N-terminus and C-terminus assumed)	12.8				
FSY [FSY peptide]		2.2	0.9	~7.7	IC50 of ACE inhibition (hippuric acid from HHL, HPLC; method of Dragnes et al.) [2]: ~4 µM and 1.7 µM and ~2.2 µM
IPP		3.2	1.04		
FTY [FTY peptide]				~274	IC50 of ACE inhibition (method of Dragnes et al.) [2]: ~59 µM
VY		13	3.6		
